The source of these data is the supplement of paper PMC5998384.

For data set [1], the system named is HeLa Kyoto. The experiment in a line: solubility in G1/S (NP-40 vs SDS abundance) (log2 ratio); higher = more soluble. The conditions noted are these: cell cycle stage: G1/S.
Data set [2] has as its system HeLa Kyoto. Briefly: melting temperature (median over replicates), in situ; higher = more thermally stable.
Data set [3] deals with HeLa Kyoto. Briefly: solubility change mitosis vs G1/S (difference of NP-40 vs SDS log2 ratios) (log2 ratio difference); higher = more soluble in mitosis.
Data set [4] deals with HeLa Kyoto. Briefly: thermal stability score vs G1/S (z-score of summed log2 fold changes over temperatures); higher = more thermally stable than in G1/S.
[5] abbreviates: cell cycle stage: early G1 (4.5 h after nocodazole release).
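For melting temperature (median over replicates), in situ in this document: HeLa Kyoto cells synchronized by double thymidine or nocodazole block, proteins quantified by TMT10plex mass spectrometry, three independent biological replicates.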
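For solubility change mitosis vs G1/S (difference of NP-40 vs SDS log2 ratios) in this document: synchronized HeLa Kyoto cells (double thymidine block for G1/S, nocodazole release for mitosis), protein amounts in NP-40 versus SDS lysates quantified by mass spectrometry, three biological replicates.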
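For solubility in G1/S (NP-40 vs SDS abundance) in this document: HeLa Kyoto cells arrested at G1/S by double thymidine block, proteins quantified by TMT10plex mass spectrometry in mild NP-40 versus SDS extracts, three biological replicates.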
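For thermal stability score vs G1/S (z-score of summed log2 fold changes over temperatures) in this document: synchronized HeLa Kyoto cells, proteins quantified by TMT10plex mass spectrometry, three biological replicates, mitosis taken 0.5 h after nocodazole release, G1/S directly after double thymidine block.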

Turning to “MRPGTGAERGGLMVSEMESHPPSQGPGDGERRLSGSSLCSGSWVSADGFLRRRPSMGHPGMHYAPMGMHPMGQRANMPPVPHGMMPQMMPPMGGPPMGQMPGMMSSVMPGMMMSHMSQASMQPALPPGVNSMDVAAGTASGAKSMWTEHKSPDGRTYYYNTETKQSTWEKPDDLKTPAEQLLSKCPWKEYKSDSGKPYYYNSQTKESRWAKPKELEDLEGYQNTIVAGSLITKSNLHAMIKAEESSKQEECTTTSTAPVPTTEIPTTMSTMAAAEAAAAVVAAAAAAAAAAAAANANASTSASNTVSGTVPVVPEPEVTSIVATVVDNENTVTISTEEQAQLTSTPAIQDQSVEVSSNTGEETSKQETVADFTPKKEEEESQPAKKTYTWNTKEEAKQAFKELLKEKRVPSNASWEQAMKMIINDPRYSALAKLSEKKQAFNAYKVQTEKEEKEEARSKYKEAKESFQRFLENHEKMTSTTRYKKAEQMFGEMEVWNAISERDRLEIYEDVLFFLSKKEKEQAKQLRKRNWEALKNILDNMANVTYSTTWSEAQQYLMDNPTFAEDEELQNMDKEDALICFEEHIRALEKEEEEEKQKSLLRERRRQRKNRESFQIFLDELHEHGQLHSMSSWMELYPTISSDIRFTNMLGQPGSTALDLFKFYVEDLKARYHDEKKIIKDILKDKGFVVEVNTTFEDFVAIISSTKRSTTLDAGNIKLAFNSLLEKAEAREREREKEEARKMKRKESAFKSMLKQAAPPIELDAVWEDIRERFVKEPAFEDITLESERKRIFKDFMHVLEHECQHHHSKNKKHSKKSKKHHRKRSRSRSGSDSDDDDSHSKKKRQRSESRSASEHSSSAESERSYKKSKKHKKKSKKRRHKSDSPESDAEREKDKKEKDRESEKDRTRQRSESKHKSPKKKTGKDSGNWDTSGSELSEGELEKRRRTLLEQLDDDQ [PRPF40A]”, the “solubility in G1/S (log2)” value with HeLa Kyoto [1] was -1.2. The figures for the melting temperature with HeLa Kyoto [2] (cell cycle stage: G1/S) and in the data set with HeLa Kyoto [2] (cell cycle stage: mitosis) were 47.1 °C and 48.8 °C, respectively. The “solubility change mitosis (log2)” value in the data set on HeLa Kyoto [3] worked out at 0.633. The thermal stability score turned out to be 1.36 in the data set on HeLa Kyoto [4] (setting [5]) and 6.53 in the data set on HeLa Kyoto [4] (cell cycle stage: mitosis).
As for “MEAPLQTGMMGTSSHGLATNSSGAKVAERDGFQDVLAPGEGSAGRICGAQPVPFVPQVLGVMIGAGVAVVVTAVLILLVVRRLRVPKTPAPDGPRYRFRKRDKVLFYGRKIMRKVSQSTSSLVDTSVSATSRPRMRKKLKMLNIAKKILRIQKETPTLQRKEPPPAVLEADLTEGDLANSHLPSEVLYMLKNVRVLGHFEKPLFLELCRHMVFQRLGQGDYVFRPGQPDASIYVVQDGLLELCLPGPDGKECVVKEVVPGDSVNSLLSILDVITGHQHPQRTVSARAARDSTVLRLPVEAFSAVFTKYPESLVRVVQIIMVRLQRVTFLALHNYLGLTNELFSHEIQPLRLFPSPGLPTRTSPVRGSKRMVSTSATDEPRETPGRPPDPTGAPLPGPTGDPVKPTSLETPSAPLLSRCVSMPGDISGLQGGPRSDFDMAYERGRISVSLQEEASGGSLAAPARTPTQEPREQPAGACEYSYCEDESATGGCPFGPYQGRQTSSIFEAAKQELAKLMRIEDPSLLNSRVLLHHAKAGTIIARQGDQDVSLHFVLWGCLHVYQRMIDKAEDVCLFVAQPGELVGQLAVLTGEPLIFTLRAQRDCTFLRISKSDFYEIMRAQPSVVLSAAHTVAARMSPFVRQMDFAIDWTAVEAGRALYRQGDRSDCTYIVLNGRLRSVIQRGSGKKELVGEYGRGDLIGVVEALTRQPRATTVHAVRDTELAKLPEGTLGHIKRRYPQVVTRLIHLLSQKILGNLQQLQGPFPAGSGLGVPPHSELTNPASNLATVAILPVCAEVPMVAFTLELQHALQAIGPTLLLNSDIIRARLGASALDSIQEFRLSGWLAQQEDAHRIVLYQTDASLTPWTVRCLRQADCILIVGLGDQEPTLGQLEQMLENTAVRALKQLVLLHREEGAGPTRTVEWLNMRSWCSGHLHLRCPRRLFSRRSPAKLHELYEKVFSRRADRHSDFSRLARVLTGNTIALVLGGGGARGCSHIGVLKALEEAGVPVDLVGGTSIGSFIGALYAEERSASRTKQRAREWAKSMTSVLEPVLDLTYPVTSMFTGSAFNRSIHRVFQDKQIEDLWLPYFNVTTDITASAMRVHKDGSLWRYVRASMTLSGYLPPLCDPKDGHLLMDGGYINNLPADIARSMGAKTVIAIDVGSQDETDLSTYGDSLSGWWLLWKRLNPWADKVKVPDMAEIQSRLAYVSCVRQLEVVKSSSYCEYLRPPIDCFKTMDFGKFDQIYDVGYQYGKAVFGGWSRGNVIEKMLTDRRSTDLNESRRADVLAFPSSGFTDLAEIVSRIEPPTSYVSDGCADGEESDCLTEYEEDAGPDCSRDEGGSPEGASPSTASEMEEEKSILRQRRCLPQEPPGSATDA [PNPLA6]”, the “solubility in G1/S (log2)” value with HeLa Kyoto [1] is -0.179. In addition, the melting temperature amounted to 51.4 °C in the data set on HeLa Kyoto [2] (cell cycle stage: G1/S) and 50.8 °C in the data set with HeLa Kyoto [2] (cell cycle stage: mitosis). Also, the “solubility change mitosis (log2)” value in the data set with HeLa Kyoto [3] is -0.0785. Besides, the thermal stability score in the data set with HeLa Kyoto [4] (setting [5]) was -0.313; with HeLa Kyoto [4] (cell cycle stage: mitosis), -1.07.
On to URB1, for which the “solubility in G1/S (log2)” value in the data set on HeLa Kyoto [1] was -1.55. The substance also gave a melting temperature in the data set on HeLa Kyoto [2] (cell cycle stage: mitosis) of 50.5 °C. The “solubility change mitosis (log2)” value with HeLa Kyoto [3] is 0.746. The thermal stability score in the data set on HeLa Kyoto [4] (setting [5]) was found to be 0.229; in the data set with HeLa Kyoto [4] (cell cycle stage: mitosis) it was 0.403.
Take “MELSQMSELMGLSVLLGLLALMATAAVARGWLRAGEERSGRPACQKANGFPPDKSSGSKKQKQYQRIRKEKPQQHNFTHRLLAAALKSHSGNISCMDFSSNGKYLATCADDRTIRIWSTKDFLQREHRSMRANVELDHATLVRFSPDCRAFIVWLANGDTLRVFKMTKREDGGYTFTATPEDFPKKHKAPVIDIGIANTGKFIMTASSDTTVLIWSLKGQVLSTINTNQMNNTHAAVSPCGRFVASCGFTPDVKVWEVCFGKKGEFQEVVRAFELKGHSAAVHSFAFSNDSRRMASVSKDGTWKLWDTDVEYKKKQDPYLLKTGRFEEAAGAAPCRLALSPNAQVLALASGSSIHLYNTRRGEKEECFERVHGECIANLSFDITGRFLASCGDRAVRLFHNTPGHRAMVEEMQGHLKRASNESTRQRLQQQLTQAQETLKSLGALKK [TBL2]”: in the data set on HeLa Kyoto [1], the “solubility in G1/S (log2)” value is -0.571. For the same substance, the results for the melting temperature in the data set on HeLa Kyoto [2] (cell cycle stage: G1/S) and with HeLa Kyoto [2] (cell cycle stage: mitosis) were 51 °C and 50.4 °C, respectively. In the data set on HeLa Kyoto [3], the “solubility change mitosis (log2)” value stood at 0.307. The thermal stability score in the data set with HeLa Kyoto [4] (setting [5]) is 0.379; in the data set with HeLa Kyoto [4] (cell cycle stage: mitosis) it was -0.532.
